Data reported in patent WO2020219978A1 (dated 2020).

What was measured:
[1] = biological target: T1, CD3 on Jurkat cells (human, UniProt P07766 23-207); experiment: flow cytometry on Jurkat cells, second study
T1 construct: also called CD3 on T cell lines

[2] = biological target: T2, human cluster of differentiation 3 epsilon/delta heterodimer (CD3ed) (human, UniProt P04234 22-105); experiment: SPR (n = 3 by paragraph 97)
T2 construct: also called human CD3ed heterodimer

[3] = biological target: T3, human BCMA on cells (NCI-H929, L363, JJN-3, RPMI-8226, U266 myeloma cell lines; HEK293T-huBCMA) (human, UniProt Q02223 1-184); experiment: flow cytometry on NCI-H929 MM cells, 3 lots
T3 construct: also called BCMA on myeloma cell lines
T3 sequence: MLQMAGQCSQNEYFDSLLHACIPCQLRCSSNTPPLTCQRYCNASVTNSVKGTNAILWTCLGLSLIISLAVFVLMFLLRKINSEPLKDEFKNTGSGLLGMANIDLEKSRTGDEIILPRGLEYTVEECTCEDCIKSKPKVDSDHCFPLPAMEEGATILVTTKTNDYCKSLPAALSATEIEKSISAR

[4] = biological target: T4, human BCMA (hu-BCMA), as used in SPR (human, UniProt Q02223 1-54); experiment: SPR
T4 construct: The construct used in SPR is not described; also called B cell maturation antigen; TNFRSF17
T4 sequence: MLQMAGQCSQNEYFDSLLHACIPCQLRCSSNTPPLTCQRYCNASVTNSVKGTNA

[5] = biological target: T4, human BCMA (hu-BCMA), as used in SPR; experiment: not stated (description)
[6] = biological target: human CD3 epsilon (CD3ɛ), form of the assay not stated (human, UniProt P07766 23-126, limits assumed); experiment: not stated (description)
Chain of human CD3 epsilon (CD3ɛ), form of the assay not stated (P07766 23-126 limits assumed): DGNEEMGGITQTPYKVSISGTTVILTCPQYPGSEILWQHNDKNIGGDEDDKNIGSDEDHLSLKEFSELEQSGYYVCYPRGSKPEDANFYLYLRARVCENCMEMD

[7] = biological target: T1, CD3 on Jurkat cells; experiment: flow cytometry on Jurkat cells
[8] = biological target: T4, human BCMA (hu-BCMA), as used in SPR; experiment: SPR, mean (n = 3 by paragraph 97)
[9] = biological target: T5, mouse BCMA (mouse, UniProt O88472 1-49, limits assumed); experiment: SPR
T5 construct: also called rodent BCMA
T5 chain (looked up): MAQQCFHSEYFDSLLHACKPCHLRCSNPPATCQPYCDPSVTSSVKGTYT

[10] = biological target: T6, BCMA/Fc (human, UniProt Q02223 1-54); experiment: flow cytometry blocking experiment on U266 cells; soluble BCMA/Fc against BCMA on the cells
T6 construct: not shown: Fc part not described
T6 sequence: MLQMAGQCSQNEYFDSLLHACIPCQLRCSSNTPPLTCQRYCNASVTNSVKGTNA

T1 sequence (P07766 23-207 limits assumed): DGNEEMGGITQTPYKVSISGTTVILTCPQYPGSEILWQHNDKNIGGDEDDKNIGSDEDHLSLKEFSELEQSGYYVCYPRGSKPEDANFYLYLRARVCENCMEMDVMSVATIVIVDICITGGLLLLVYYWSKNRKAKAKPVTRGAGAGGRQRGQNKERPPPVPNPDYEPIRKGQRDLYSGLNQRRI
T2 sequence (chain, as listed by the source mutant, chain 1 of 2): as the sequence (P07766 23-126 limits assumed) above
T2 sequence (P04234 22-105, stated change not applied, chain 2 of 2): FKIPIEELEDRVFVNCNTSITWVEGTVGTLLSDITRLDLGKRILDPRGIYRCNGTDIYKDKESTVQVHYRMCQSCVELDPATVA

B1: CC-93269, bispecific trivalent anti-BCMA/anti-CD3 T cell engaging antibody (TCE) (bispecific antibody, human IgG1, kappa, L234A L235A)
heavy 1: not shown
heavy 2: EVQLLESGGGLVQPGGSLRLSCAASGFTFSDNAMGWVRQAPGKGLEWVSAISGPGSSTYYADSVKGRFTISRDNSKNTLYLQMNSLRAEDTAVYYCAKVLGWFDYWGQGTLVTVSSASTKGPSVFPLAPSSKSTSGGTAALGCLVEDYFPEPVTVSWNSGALTSGVHTFPAVLQSSGLYSLSSVVTVPSSSLGTQTYICNVNHKPSNTKVDEKVEPKSCDKTHTCPPCPAPEAAGGPSVFLFPPKPKDTLMISRTPEVTCVVVDVSHEDPEVKFNWYVDGVEVHNAKTKPREEQYNSTYRVVSVLTVLHQDWLNGKEYKCKVSNKALGAPIEKTISKAKGQPREPQVCTLPPSRDELTKNQVSLSCAVKGFYPSDIAVEWESNGQPENNYKTTPPVLDSDGSFFLVSKLTVDKSRWQQGNVFSCSVMHEALHNHYTQKSLSLSPGK
light 1: EVQLLESGGGLVQPGGSLRLSCAASGFTFSTYAMNWVRQAPGKGLEWVSRIRSKYNNYATYYADSVKGRFTISRDDSKNTLYLQMNSLRAEDTAVYYCVRHGNFGNSYVSWFAYWGQGTLVTVSSASVAAPSVFIFPPSDEQLKSGTASVVCLLNNFYPREAKVQWKVDNALQSGNSQESVTEQDSKDSTYSLSSTLTLSKADYEKHKVYACEVTHQGLSSPVTKSFNRGEC
light 2: EIVLTQSPGTLSLSPGERATLSCRASQSVSDEYLSWYQQKPGQAPRLLIHSASTRATGIPDRFSGSGSGTDFTLAISRLEPEDFAVYYCQQYGYPPDFTFGQGTKVEIKRTVAAPSVFIFPPSDRKLKSGTASVVCLLNNFYPREAKVQWKVDNALQSGNSQESVTEQDSKDSTYSLSSTLTLSKADYEKHKVYACEVTHQGLSSPVTKSFNRGEC
B1 showed an EC50 [1] of 121 nM, a Kd [2] of 25 nM and an EC50 [3] of 1.7 to 2.8 nM. For the same binder, the “fold higher affinity than to rodent BCMA” value [4] was ~10 fold, the Kd [5] was ~0.3 nM and the Kd [6] was 24 to 28 nM. The EC50 [7] was 16.8 to 37.4 nM.

B2: BCMA binder of CC-93269 (anti-BCMA IgG and Fab fragment of clone 83A10-42) (antibody, V domains shown)
VH: EVQLLESGGGLVQPGGSLRLSCAASGFTFSDNAMGWVRQAPGKGLEWVSAISGPGSSTYYADSVKGRFTISRDNSKNTLYLQMNSLRAEDTAVYYCAKVLGWFDYWGQGTLVTVSS
VL: EIVLTQSPGTLSLSPGERATLSCRASQSVSDEYLSWYQQKPGQAPRLLIHSASTRATGIPDRFSGSGSGTDFTLAISRLEPEDFAVYYCQQYGYPPDFTFGQGTKVEIK
B2 was tested, and the Kd [8] was 0.431 nM, the binding result [9] was “binds” and the Kd [4] was 0.203 to 0.45 nM.

B3: phycoerythrin (PE)-conjugated BCMA binder (Clone 83A10-42) of CC-93269 (antibody, V domains shown)
VH: EVQLLESGGGLVQPGGSLRLSCAASGFTFSDNAMGWVRQAPGKGLEWVSAISGPGSSTYYADSVKGRFTISRDNSKNTLYLQMNSLRAEDTAVYYCAKVLGWFDYWGQGTLVTVSS
VL: EIVLTQSPGTLSLSPGERATLSCRASQSVSDEYLSWYQQKPGQAPRLLIHSASTRATGIPDRFSGSGSGTDFTLAISRLEPEDFAVYYCQQYGYPPDFTFGQGTKVEIK
modifications: phycoerythrin (PE)-conjugated; site not stated
notes: also called PE-conjugated 83A10-42
B3: binds [10].
